Test results from the Immune Epitope Database (IEDB).
pKd: −log10 of the molar value.

Assays:
[1] = molecular target: HLA-A*02:01; assay: IEDB peptide-MHC binding, purified MHC/competitive/fluorescence; filed as Kd, often an IC50 or EC50 that approximates it; ≥ and ≤ were set here for values at or beyond the usual limits of such assays; settings: source organism: Burkholderia mallei SAVP1
[2] = molecular target: HLA-A*02:19; assay: as above; settings: source organism: Burkholderia mallei SAVP1
[3] = molecular target: HLA-A*01:01; assay: IEDB peptide-MHC binding, purified MHC/direct/fluorescence; filed as Kd, often an IC50 or EC50 that approximates it; ≥ and ≤ were set here for values at or beyond the usual limits of such assays
[4] = molecular target: HLA-A*02:01; assay: as above
[5] = molecular target: HLA-A*03:01; assay: as above
[6] = molecular target: HLA-A*11:01; assay: as above
[7] = molecular target: HLA-A*31:01; assay: as above; settings: source organism: Bacillus anthracis
[8] = molecular target: HLA-A*69:01; assay: as above; settings: source organism: Bacillus anthracis
[9] = molecular target: HLA-B*07:02; assay: as above
[10] = molecular target: HLA-B*08:01; assay: as above; settings: source organism: Bacillus anthracis str. A2012
[11] = molecular target: HLA-B*15:01; assay: as above
[12] = molecular target: HLA-B*15:17; assay: as above
[13] = molecular target: HLA-B*18:01; assay: as above; settings: source organism: Bacillus anthracis
[14] = molecular target: HLA-B*27:05; assay: as above
[15] = molecular target: HLA-B*40:01; assay: as above; settings: source organism: Bacillus anthracis
[16] = molecular target: HLA-B*46:01; assay: as above; settings: source organism: Bacillus anthracis
[17] = molecular target: HLA-B*48:01; assay: as above; settings: source organism: Bacillus anthracis
[18] = molecular target: HLA-B*57:01; assay: as above
[19] = molecular target: HLA-B*58:01; assay: as above
[20] = molecular target: HLA-A*02:03; assay: as above; settings: source organism: Influenza A virus (A/ruddy turnstone/Delaware/67/1998(H12N4))
[21] = molecular target: HLA-A*02:12; assay: as above; settings: source organism: Influenza A virus (A/ruddy turnstone/Delaware/67/1998(H12N4))
[22] = molecular target: HLA-A*02:19; assay: as above; settings: source organism: Influenza A virus (A/ruddy turnstone/Delaware/67/1998(H12N4))
[23] = molecular target: HLA-A*68:02; assay: as above; settings: source organism: Influenza A virus (A/ruddy turnstone/Delaware/67/1998(H12N4))
[24] = molecular target: HLA-A*26:01; assay: IEDB peptide-MHC binding, purified MHC/competitive/fluorescence; filed as Kd, often an IC50 or EC50 that approximates it; ≥ and ≤ were set here for values at or beyond the usual limits of such assays; settings: source organism: Influenza A virus (A/ruddy turnstone/Delaware/67/1998(H12N4))
[25] = molecular target: HLA-A*69:01; assay: as above; settings: source organism: Influenza A virus (A/ruddy turnstone/Delaware/67/1998(H12N4))
[26] = molecular target: HLA-B*18:01; assay: as above; settings: source organism: Influenza A virus (A/ruddy turnstone/Delaware/67/1998(H12N4))
[27] = molecular target: HLA-B*27:03; assay: as above; settings: source organism: Influenza A virus (A/ruddy turnstone/Delaware/67/1998(H12N4))
[28] = molecular target: HLA-B*39:01; assay: as above; settings: source organism: Influenza A virus (A/ruddy turnstone/Delaware/67/1998(H12N4))
[29] = molecular target: HLA-B*46:01; assay: as above; settings: source organism: Influenza A virus (A/ruddy turnstone/Delaware/67/1998(H12N4))
[30] = molecular target: HLA-B*51:01; assay: as above; settings: source organism: Influenza A virus (A/ruddy turnstone/Delaware/67/1998(H12N4))
[31] = molecular target: HLA-B*57:01; assay: as above; settings: source organism: Influenza A virus (A/ruddy turnstone/Delaware/67/1998(H12N4))
[32] = source organism: Bacillus anthracis
[33] = source organism: Coxiella burnetii

IMALKQAGL
pKd [1]: 7.35
pKd [2]: 8.35

PTDYAKPQY
pKd [3, 32]: 7.28
pKd [4, 32]: ≤ 4.70
pKd [5, 32]: ≤ 4.70
pKd [6, 32]: ≤ 4.70
pKd [7]: ≤ 4.70
pKd [8]: ≤ 4.70
pKd [9, 32]: ≤ 4.70
pKd [10]: ≤ 4.70
pKd [11, 32]: ≤ 4.70
pKd [12, 32]: ≤ 4.70
pKd [13]: ≤ 4.70
pKd [14, 32]: ≤ 4.70
pKd [15]: ≤ 4.70
pKd [16]: ≤ 4.70
pKd [17]: ≤ 4.70
pKd [18, 32]: ≤ 4.70
pKd [19, 32]: ≤ 4.70

IVFMWAIHH
pKd [20]: ≤ 4.70
pKd [21]: ≤ 4.70
pKd [22]: ≤ 4.70
pKd ([6]; source organism: Influenza A virus (A/ruddy turnstone/Delaware/67/1998(H12N4))): 6.73
pKd [23]: ≤ 4.70
pKd [24]: ≤ 4.70
pKd [25]: ≤ 4.70
pKd [26]: ≤ 4.70
pKd [27]: ≤ 4.70
pKd [28]: ≤ 4.70
pKd [29]: ≤ 4.70
pKd [30]: ≤ 4.70
pKd [31]: ≤ 4.70

ITLYEYDHF
pKd [3, 33]: ≤ 4.70
pKd [4, 33]: ≤ 4.70
pKd [5, 33]: ≤ 4.70
pKd [9, 33]: ≤ 4.70
pKd [11, 33]: ≤ 4.70
pKd [12, 33]: 7.90
pKd [14, 33]: ≤ 4.70
pKd [18, 33]: 6.89
pKd [19, 33]: 6.05
